According to the supplement of paper PMC9170038:

Test system: K4 kissing-loop RNA reporter
Assay: apparent KD of K4 kissing-loop reporter; higher = weaker reporter binding
Conditions: Eterna round: R107; input ligand: FMN 200 uM
Method: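 RNA-MaP round R107: designed RNA switches with theophylline, tryptophan, arginine or FMN aptamers are transcribed on-chip within common flanks. They are titrated with a labelled K4 kissing-loop RNA reporter in RNA-MaP buffer (100 mM Tris pH 7.5, 80 mM KCl, 4 mM MgCl2), without ligand or with the indicated ligand. Median apparent KD per design.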
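Also: bound reporter read as fluorescence of individual clusters on recovered sequencing chips by microscopy, with normalized cluster intensities fitted with a binding model.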

Sequence | apparent KD of K4 kissing-loop reporter
UGAUACCAGACGGCCGCCACUCCCGUAAGUCAAAGACUUACGAAGAGAGUUUUCCAGUGAUGUUGGAGGACCGGGUCUGGUAUCU [FiskerMod 15 - Jieux - Exclusion - Tryptophan B] | 186 nM
CUGAUGCUGAUGCGGCGGCCGGUGGUCGUGCGAGGACCGGUACGGCCGCCACUCGCGCGAGUGAUGUUCGCGCGUCGUCGUCGUC [First Shot] | 120 nM
AAUAAAAUCACGGCCGCCACUGAUACUAGUAUUAGCAGUGAUGUUGCUAUGUAUAAUUUAUUAAAUAGGACCGGGUGAAUAUUUA [#25 K4 Tryptophan B Exclusion] | 298 nM
AAAUUCUUUUUUUUAUUUAACUUUUCAGAAGGAGCGUGGUAGUACACAGGUAGGUCGCUGAAUUUUGGACUAGUGAUGUUAGUUA [JR_SSArginiA_Sub007] | 156 nM
AAGCAGUCACUCUAAGCCAUCGAAGAUGGACGAGGACCGGUACGGCCGCCACUCGGAGUGAUGUUCCGAAGACUGCAAAAUAAAA | 379 nM
CAUACUAUCAGAAGGAGCGUGGAAUAUUCAUCUGUAUCUAAUACGAGUGAUGUUCGUAAUUCACAGGUAGGUCGCUGAUUAAUAC [whbob_Ex_Arginine_B_2th159] | 265 nM
GCGCGUGUUAAAGGAUAUAGCAGGUGAUACAAGAAAGUGAGUGAUGUUUAUGUAGAUGAUGAUAUGUUAGAAGGUUAACAAGCGC [abcdefghijklmnopq] | 778 nM
UGGGAUGUUAAAGGAUAUAGCAAGUGAUAUAAGAAAGUGAGUGAUGUUGAUGUAGGUGAUGAUAUGUUAGAAGGUUAACAAAACG [abcdefg] | 350 nM
UGGCGAGUGAUGUUCGUUGUUGUAGUGUGUCGAGGACCGGUACGGCCGCCACUCGGGUUGGUUGUUGUUGUUGUUGUUGUUGUUG [First Shot] | 218 nM
GGGAGUAGUGCGGCCGCCACUGAGAAAGAAGAAGAAUAUAGUGAUGUUAUAUAGGAAUAAAAGAAUAGGACCGGGCAUUAGAUUU [SSTRyptB.S] | 165 nM
CUCGUGGGUUUGGGAGGGCUUGUGGGAAGAUAGGAUAUCUAGGGAGGGAGAAGGAUCUAUAGAAUAUAGUGAUGUUAUAUAUGGG [SSFMNA.aA] | 118 nM
GGAUUGCCAGUGAUGUUGGCAUAAACUGAAGGAGCGCGUGAAAACGCAGGUAGGUCGCAGAACCUUGCCAACUAUAUUAUUUACC [Ex Arginine A K4 22] | 111 nM
UUUCGUAGAAGUGAUACCAGACUGGAAAGUGAUGUUUUCCAAUUAUUUAAAUCCUUAUCUGUCCCUUGGCAGCACAGUUUAUUUA [JR_Nu_ExcTheophyB_Sub027] | 71.8 nM
AUUGUACAAGUGAUGUUUGUUUUUUCCGAAGGAGCGUCUAAUAAGACAGGUAGGUCGCGGAUUCUCUUAAUAAUCAGGUCAUUAA [JR_Nu_ExcArginiA_Sub020] | 364 nM
ACCCUGGGUCCCGAAAGGGACCCAGGGAGUGAGGAUAUGUGGAAACACAGAAGGCACAGCACAGUGAUGUUGUGCGACGAAAGUC [#02 K4 FMN A Same State] | 566 nM
UGACUGGACUGAAGGAGCGAGGACGGUCAUAGACCGAAUUCAGUGAUGUUGAAAAUAAAACCUCAGGUAGGUCGCAGUCUAGUCU [ArgBS 3 #SwitchBubble #StaticStem] | 228 nM
UGAUAGGACAGAAGGAGCGGUAGUGAUGUUACCAAAAGUAUAAGGUGUCAAAAGACACCCUACCAGGUAGGUCGCUGUCCUAUCU | 292 nM
UGGAUAUAGUGAUGUUAUAUAGAGAUUGAUACCAGUUAAGAGAAUAGCCCUUGGCAGCAGAAAGAAGUAUCAUUAGAGAAGAAUG [ExTheophyl.Ac] | 256 nM

Same assay, conditions: Eterna round: R107; input ligand: arginine 13.2 mM

Sequence | apparent KD of K4 kissing-loop reporter
UGAUACCAGACGGCCGCCACUCCCGUAAGUCAAAGACUUACGAAGAGAGUUUUCCAGUGAUGUUGGAGGACCGGGUCUGGUAUCU [FiskerMod 15 - Jieux - Exclusion - Tryptophan B] | 168 nM
CUGAUGCUGAUGCGGCGGCCGGUGGUCGUGCGAGGACCGGUACGGCCGCCACUCGCGCGAGUGAUGUUCGCGCGUCGUCGUCGUC [First Shot] | 91.4 nM
AAUAAAAUCACGGCCGCCACUGAUACUAGUAUUAGCAGUGAUGUUGCUAUGUAUAAUUUAUUAAAUAGGACCGGGUGAAUAUUUA [#25 K4 Tryptophan B Exclusion] | 220 nM
AAAUUCUUUUUUUUAUUUAACUUUUCAGAAGGAGCGUGGUAGUACACAGGUAGGUCGCUGAAUUUUGGACUAGUGAUGUUAGUUA [JR_SSArginiA_Sub007] | 154 nM
AAGCAGUCACUCUAAGCCAUCGAAGAUGGACGAGGACCGGUACGGCCGCCACUCGGAGUGAUGUUCCGAAGACUGCAAAAUAAAA | 402 nM
CAUACUAUCAGAAGGAGCGUGGAAUAUUCAUCUGUAUCUAAUACGAGUGAUGUUCGUAAUUCACAGGUAGGUCGCUGAUUAAUAC [whbob_Ex_Arginine_B_2th159] | 272 nM
GCGCGUGUUAAAGGAUAUAGCAGGUGAUACAAGAAAGUGAGUGAUGUUUAUGUAGAUGAUGAUAUGUUAGAAGGUUAACAAGCGC [abcdefghijklmnopq] | 606 nM
UGGGAUGUUAAAGGAUAUAGCAAGUGAUAUAAGAAAGUGAGUGAUGUUGAUGUAGGUGAUGAUAUGUUAGAAGGUUAACAAAACG [abcdefg] | 217 nM
UGGCGAGUGAUGUUCGUUGUUGUAGUGUGUCGAGGACCGGUACGGCCGCCACUCGGGUUGGUUGUUGUUGUUGUUGUUGUUGUUG [First Shot] | 187 nM
GGGAGUAGUGCGGCCGCCACUGAGAAAGAAGAAGAAUAUAGUGAUGUUAUAUAGGAAUAAAAGAAUAGGACCGGGCAUUAGAUUU [SSTRyptB.S] | 245 nM
CUCGUGGGUUUGGGAGGGCUUGUGGGAAGAUAGGAUAUCUAGGGAGGGAGAAGGAUCUAUAGAAUAUAGUGAUGUUAUAUAUGGG [SSFMNA.aA] | 261 nM
GGAUUGCCAGUGAUGUUGGCAUAAACUGAAGGAGCGCGUGAAAACGCAGGUAGGUCGCAGAACCUUGCCAACUAUAUUAUUUACC [Ex Arginine A K4 22] | 137 nM
UUUCGUAGAAGUGAUACCAGACUGGAAAGUGAUGUUUUCCAAUUAUUUAAAUCCUUAUCUGUCCCUUGGCAGCACAGUUUAUUUA [JR_Nu_ExcTheophyB_Sub027] | 81.3 nM
AUUGUACAAGUGAUGUUUGUUUUUUCCGAAGGAGCGUCUAAUAAGACAGGUAGGUCGCGGAUUCUCUUAAUAAUCAGGUCAUUAA [JR_Nu_ExcArginiA_Sub020] | 275 nM
ACCCUGGGUCCCGAAAGGGACCCAGGGAGUGAGGAUAUGUGGAAACACAGAAGGCACAGCACAGUGAUGUUGUGCGACGAAAGUC [#02 K4 FMN A Same State] | 97.5 nM
UGACUGGACUGAAGGAGCGAGGACGGUCAUAGACCGAAUUCAGUGAUGUUGAAAAUAAAACCUCAGGUAGGUCGCAGUCUAGUCU [ArgBS 3 #SwitchBubble #StaticStem] | 193 nM
UGAUAGGACAGAAGGAGCGGUAGUGAUGUUACCAAAAGUAUAAGGUGUCAAAAGACACCCUACCAGGUAGGUCGCUGUCCUAUCU | 295 nM
UGGAUAUAGUGAUGUUAUAUAGAGAUUGAUACCAGUUAAGAGAAUAGCCCUUGGCAGCAGAAAGAAGUAUCAUUAGAGAAGAAUG [ExTheophyl.Ac] | 182 nM

Same assay, conditions: Eterna round: R107; input ligand: none

Sequence | apparent KD of K4 kissing-loop reporter
UGAUACCAGACGGCCGCCACUCCCGUAAGUCAAAGACUUACGAAGAGAGUUUUCCAGUGAUGUUGGAGGACCGGGUCUGGUAUCU [FiskerMod 15 - Jieux - Exclusion - Tryptophan B] | 175 nM
CUGAUGCUGAUGCGGCGGCCGGUGGUCGUGCGAGGACCGGUACGGCCGCCACUCGCGCGAGUGAUGUUCGCGCGUCGUCGUCGUC [First Shot] | 114 nM
AAUAAAAUCACGGCCGCCACUGAUACUAGUAUUAGCAGUGAUGUUGCUAUGUAUAAUUUAUUAAAUAGGACCGGGUGAAUAUUUA [#25 K4 Tryptophan B Exclusion] | 267 nM
AAAUUCUUUUUUUUAUUUAACUUUUCAGAAGGAGCGUGGUAGUACACAGGUAGGUCGCUGAAUUUUGGACUAGUGAUGUUAGUUA [JR_SSArginiA_Sub007] | 158 nM
AAGCAGUCACUCUAAGCCAUCGAAGAUGGACGAGGACCGGUACGGCCGCCACUCGGAGUGAUGUUCCGAAGACUGCAAAAUAAAA | 466 nM
CAUACUAUCAGAAGGAGCGUGGAAUAUUCAUCUGUAUCUAAUACGAGUGAUGUUCGUAAUUCACAGGUAGGUCGCUGAUUAAUAC [whbob_Ex_Arginine_B_2th159] | 267 nM
GCGCGUGUUAAAGGAUAUAGCAGGUGAUACAAGAAAGUGAGUGAUGUUUAUGUAGAUGAUGAUAUGUUAGAAGGUUAACAAGCGC [abcdefghijklmnopq] | 847 nM
UGGGAUGUUAAAGGAUAUAGCAAGUGAUAUAAGAAAGUGAGUGAUGUUGAUGUAGGUGAUGAUAUGUUAGAAGGUUAACAAAACG [abcdefg] | 356 nM
UGGCGAGUGAUGUUCGUUGUUGUAGUGUGUCGAGGACCGGUACGGCCGCCACUCGGGUUGGUUGUUGUUGUUGUUGUUGUUGUUG [First Shot] | 196 nM
